How the values were obtained:
[1] = test system: EFT-400 tissues; experiment: Sunburned cell counts in UV-irradiated EpiDerm-FT (EFT-400) skin model tissues, H&E histology; type: cell-based, human; details: for sunburned cell formation: 200 mJ/cm2 UVB/29.94 mW/cm2 UVA, 24 hour post irradiation
Procedure: Packaged tissues were stored at 4° C. overnight and then re-equilibrated in EFT-400-ASY medium overnight prior to the start of experiments. The sample size was n=3 for each treatment group in the gene expression experiments; and n=6 (two independent experiments of n=3) for the sunburned cell counts.
Treated and untreated tissues were exposed to UV irradiation with 200 mJ/cm^2UVB/29.94 mW/cm^2UVA simulated solar UV light (Honle-500 solar lamp).
At the conclusion of the 24 hour post-irradiation period, EFT-400 tissues were fixed in 10% formalin for 2 hours at room temperature (two independent experiments with n=3). Formalin fixed tissues were embedded in paraffin and 6 micron slices were stained with haematoxylin and eosin (H&E).

[2] = test system: EFT-400 tissues; experiment: Gene expression by quantitative PCR custom array in EFT-400 tissues with or without UV irradiation
Procedure: EpiDerm-FT™ (EFT-400) tissues were produced and packaged in the MatTek Corporation GMP tissue culture production laboratories following standard procedures. Packaged tissues were stored at 4° C. overnight and then re-equilibrated in EFT-400-ASY medium overnight prior to the start of experiments. The sample size was n=3 for each treatment group in the gene expression experiments; and n=6 (two independent experiments of n=3) for the sunburned cell counts.
Total RNA was isolated from the EFT-400 tissues (RNAqueous kit, Ambion) (n=3) and utilized for gene expression analysis by quantitative PCR on an SABioscience custom array containing 42 Human Extracellular Matrix (ECM) and Adhesion Molecules RT^2 Profiler™ PCR Array, stress and toxicity genes whose expression, based on MatTek data, are known to be dramatically altered by UV-protective compounds on UV damaged skin. […] Further, there were three internal control spots on the array that corresponded to human genomic DNA contamination (HGDC), positive PCR control (PPC), and reverse transcription control (RTC).

B1: Nell 1: Full-length human recombinant NELL1 protein (isoform 1, SEQ ID NO: 2), expressed in a wheat germ cell-free translation system, obtained from Abnova (protein, listed as Homo sapiens)
chain: MPMDLILVVWFCVCTARTVVGFGMDPDLQMDIVTELDLVNTTLGVAQVSGMHNASKAFLFQDIEREIHAAPHVSEKLIQLFRNKSEFTILATVQQKPSTSGVILSIRELEHSYFELESSGLRDEIRYHYIHNGKPRTEALPYRMADGQWHKVALSVSASHLLLHVDCNRIYERVIDPPDTNLPPGINLWLGQRNQKHGLFKGIIQDGKIIFMPNGYITQCPNLNHTCPTCSDFLSLVQGIMDLQELLAKMTAKLNYAETRLSQLENCHCEKTCQVSGLLYRDQDSWVDGDHCRNCTCKSGAVECRRMSCPPLNCSPDSLPVHIAGQCCKVCRPKCIYGGKVLAEGQRILTKSCRECRGGVLVKITEMCPPLNCSEKDHILPENQCCRVCRGHNFCAEGPKCGENSECKNWNTKATCECKSGYISVQGDSAYCEDIDECAAKMHYCHANTVCVNLPGLYRCDCVPGYIRVDDFSCTEHDECGSGQHNCDENAICTNTVQGHSCTCKPGYVGNGTICRAFCEEGCRYGGTCVAPNKCVCPSGFTGSHCEKDIDECSEGIIECHNHSRCVNLPGWYHCECRSGFHDDGTYSLSGESCIDIDECALRTHTCWNDSACINLAGGFDCLCPSGPSCSGDCPHEGGLKHNGQVWTLKEDRCSVCSCKDGKIFCRRTACDCQNPSADLFCCPECDTRVTSQCLDQNGHKLYRSGDNWTHSCQQCRCLEGEVDCWPLTCPNLSCEYTAILEGECCPRCVSDPCLADNITYDIRKTCLDSYGVSRLSGSVWTMAGSPCTTCKCKNGRVCCSVDFECLQNN
[1]; 100 ng/ml
  sunburned cell formation: decrease in sunburned cell formation
[1]; 150 ng/ml
  sunburned cell formation: did not decrease sunburned cell formation to the same extent as 100 ng/ml NELL1
[1]; pre-treatment 30 minutes prior to UV, continued 24 hours post-irradiation
  number of sunburned cells as compared to UV-only controls: statistically significant reduction in the number of sunburned cells
[2]; NELL1 protein at 100 ng/ml, genistein at 50 μM
  activity in producing the observed effects (sunburned cells, gene expression): most active in producing the observed effects
[2]; No UV, 100 ng/ml Nell 1
  AVG Ct ACTB (housekeeping gene): 18
  AVG Ct AQP3: 23.05
  AVG Ct BCL2L1: 24.03
  AVG Ct COL1A1: 17.82
  AVG Ct COL4A2: 22.01
  AVG Ct COL5A1: 22.36
  AVG Ct COL6A1: 18.82
  AVG Ct COL6A2: 19.33
  AVG Ct COL7A1: 25.75
  AVG Ct COL8A1: 27.28
  AVG Ct COL11A1: 26.77
  AVG Ct COL12A1: 24.14
  AVG Ct COL14A1: 25.88
  AVG Ct COL15A1: 24.72
  AVG Ct COL16A1: 23.78
  AVG Ct DSG1: 20.11
  AVG Ct ERCC1: 23.72
  AVG Ct FN1: 20.04
  AVG Ct GAPDH (housekeeping gene): 17.83
  AVG Ct GDF15: 23.37
  AVG Ct GSTM3: 29.11
  AVG Ct HSPA8: 19.83
  AVG Ct IL1A: 25.17
  AVG Ct IL1B: 28.25
  AVG Ct IL8: 20.41
  AVG Ct KAL1: 31.6
  AVG Ct KRT16: 16.15
  AVG Ct LAMA1: 28.71
  AVG Ct LAMA2: 24.38
  AVG Ct LAMA3: 23.37
  AVG Ct LAMA5: 26.73
  AVG Ct LAMB1: 22.69
  AVG Ct LAMB3: 24.73
  AVG Ct LAMC1: 22.76
  AVG Ct MMP1: 20.04
  AVG Ct MMP2: 18.98
  AVG Ct MT2A: 18.43
  AVG Ct PCNA: 23.56
  AVG Ct RPL13A (housekeeping gene): 20.37
  AVG Ct SIRT1: 25.93
  AVG Ct TGFBI: 21.73
  AVG Ct THBS3: 28.69
  AVG Ct TNC: 21.22
  AVG Ct VTN: 32.48
[2]; No UV, 150 ng/ml Nell 1
  AVG Ct ACTB (housekeeping gene): 18.54
  AVG Ct AQP3: 23.74
  AVG Ct BCL2L1: 24.48
  AVG Ct COL1A1: 18.8
  AVG Ct COL4A2: 22.92
  AVG Ct COL5A1: 23.36
  AVG Ct COL6A1: 19.6
  AVG Ct COL6A2: 20.05
  AVG Ct COL7A1: 26.73
  AVG Ct COL8A1: 28.22
  AVG Ct COL11A1: 27.51
  AVG Ct COL12A1: 25
  AVG Ct COL14A1: 26.52
  AVG Ct COL15A1: 25.35
  AVG Ct COL16A1: 24.55
  AVG Ct DSG1: 20.36
  AVG Ct ERCC1: 24.07
  AVG Ct FN1: 20.71
  AVG Ct GAPDH (housekeeping gene): 18.02
  AVG Ct GDF15: 23.97
  AVG Ct GSTM3: 29.74
  AVG Ct HSPA8: 20.36
  AVG Ct IL1A: 25.55
  AVG Ct IL1B: 29.2
  AVG Ct IL8: 21.04
  AVG Ct KAL1: 33.03
  AVG Ct KRT16: 16.49
  AVG Ct LAMA1: 29.76
  AVG Ct LAMA2: 25.3
  AVG Ct LAMA3: 24.15
  AVG Ct LAMA5: 27.41
  AVG Ct LAMB1: 23.44
  AVG Ct LAMB3: 25.42
  AVG Ct LAMC1: 23.62
  AVG Ct MMP1: 20.75
  AVG Ct MMP2: 19.62
  AVG Ct MT2A: 18.83
  AVG Ct PCNA: 24.11
  AVG Ct RPL13A (housekeeping gene): 20.81
  AVG Ct SIRT1: 26.67
  AVG Ct TGFBI: 22.16
  AVG Ct THBS3: 29.23
  AVG Ct TNC: 22.04
  AVG Ct VTN: 32.57
[2]; UV-irradiated
  expression of IL-1β elevated after UV exposure: decrease in the expression
  expression of IL-8 elevated after UV exposure: decrease in the expression
  expression of MMP-1 elevated after UV exposure: decrease in the expression
  levels of AQP3 RNA after UV exposure: increased these levels further
[2]; UV-irradiated, 100 ng/ml
  UV-elevated levels of AQP3: further increased the UV-elevated levels of AQP3
  UV-induced increase in IL-1β RNA level: slightly modulated the increases
  UV-induced increase in IL-8 RNA level: slightly modulated the increases
  UV-induced increase in MMP-1 RNA level: slightly modulated the increases
  significance of further increase of AQP3 RNA after UV exposure: highly significant
[2]; UV-irradiated, 150 ng/ml
  UV-elevated levels of AQP3: did not have the same effect
  UV-induced increase in IL-1β RNA level: did not
  UV-induced increase in IL-8 RNA level: did not
  UV-induced increase in MMP-1 RNA level: did not
[2]; UVB + UVA, 100 ng/ml Nell 1
  AVG Ct ACTB (housekeeping gene): 17.67
  AVG Ct AQP3: 21.13
  AVG Ct BCL2L1: 23.22
  AVG Ct COL1A1: 18.36
  AVG Ct COL4A2: 21.55
  AVG Ct COL5A1: 22.98
  AVG Ct COL6A1: 19.15
  AVG Ct COL6A2: 19.19
  AVG Ct COL7A1: 24.38
  AVG Ct COL8A1: 26.96
  AVG Ct COL11A1: 26.86
  AVG Ct COL12A1: 23.95
  AVG Ct COL14A1: 25.64
  AVG Ct COL15A1: 25.01
  AVG Ct COL16A1: 23.42
  AVG Ct DSG1: 20.06
  AVG Ct ERCC1: 23.26
  AVG Ct FN1: 19.79
  AVG Ct GAPDH (housekeeping gene): 18.15
  AVG Ct GDF15: 22.21
  AVG Ct GSTM3: 29.13
  AVG Ct HSPA8: 19.74
  AVG Ct IL1A: 24.03
  AVG Ct IL1B: 26.48
  AVG Ct IL8: 17.72
  AVG Ct KAL1: 31.65
  AVG Ct KRT16: 16.35
  AVG Ct LAMA1: 28.16
  AVG Ct LAMA2: 25.03
  AVG Ct LAMA3: 22.41
  AVG Ct LAMA5: 26.3
  AVG Ct LAMB1: 22.34
  AVG Ct LAMB3: 23.78
  AVG Ct LAMC1: 22.72
  AVG Ct MMP1: 17.91
  AVG Ct MMP2: 18.77
  AVG Ct MT2A: 16.81
  AVG Ct PCNA: 23.31
  AVG Ct RPL13A (housekeeping gene): 20.55
  AVG Ct SIRT1: 26
  AVG Ct TGFBI: 21.97
  AVG Ct THBS3: 28.28
  AVG Ct TNC: 20.22
  AVG Ct VTN: 31.83
[2]; UVB + UVA, 150 ng/ml Nell 1
  AVG Ct ACTB (housekeeping gene): 17.99
  AVG Ct AQP3: 21.71
  AVG Ct BCL2L1: 23.45
  AVG Ct COL1A1: 18.78
  AVG Ct COL4A2: 21.59
  AVG Ct COL5A1: 23.33
  AVG Ct COL6A1: 19.34
  AVG Ct COL6A2: 19.56
  AVG Ct COL7A1: 25.28
  AVG Ct COL8A1: 27.46
  AVG Ct COL11A1: 27.23
  AVG Ct COL12A1: 24.22
  AVG Ct COL14A1: 25.86
  AVG Ct COL15A1: 25.2
  AVG Ct COL16A1: 23.71
  AVG Ct DSG1: 20.21
  AVG Ct ERCC1: 23.41
  AVG Ct FN1: 20.13
  AVG Ct GAPDH (housekeeping gene): 18.08
  AVG Ct GDF15: 21.87
  AVG Ct GSTM3: 29.32
  AVG Ct HSPA8: 20.04
  AVG Ct IL1A: 23.99
  AVG Ct IL1B: 25.98
  AVG Ct IL8: 17.08
  AVG Ct KAL1: 32.24
  AVG Ct KRT16: 16.47
  AVG Ct LAMA1: 28.02
  AVG Ct LAMA2: 25.17
  AVG Ct LAMA3: 22.96
  AVG Ct LAMA5: 27.06
  AVG Ct LAMB1: 22.48
  AVG Ct LAMB3: 24.32
  AVG Ct LAMC1: 22.88
  AVG Ct MMP1: 17.75
  AVG Ct MMP2: 18.67
  AVG Ct MT2A: 16.56
  AVG Ct PCNA: 23.58
  AVG Ct RPL13A (housekeeping gene): 20.64
  AVG Ct SIRT1: 26.02
  AVG Ct TGFBI: 21.91
  AVG Ct THBS3: 28.7
  AVG Ct TNC: 20.2
  AVG Ct VTN: 32.41
[2]; no UV
  gene expression in the absence of UV irradiation: some decreases in gene expression

Source: patent US20110236325A1, “METHODS TO TREAT OR PREVENT A SKIN CONDITION USING A NELL1 PEPTIDE” (NellOne Therapeutics, Inc., priority 2010, published 2011)
